Test results taken from patent publication CN118005785A (BEILAI PHARMACEUTICAL CO LTD, dated 2024).

How the values were obtained:
[1] = target: T1, Human IL-17A重组蛋白 (IL-17A-His) (human, UniProt Q16552 24-155, limits assumed, biotinylated in the ELISA of paragraph 276 (Biotin-IL-17A-His); site not stated); test: ELISA, antibody coated at 2 ug/mL, Biotin-IL-17A-His titrated from 10 ug/mL, HRP-Streptavidin detection
T1 construct: Expressed in E. coli BL21 from pET28a and purified on a nickel column; also called IL-17A抗原蛋白; IL-17抗原
T1 sequence: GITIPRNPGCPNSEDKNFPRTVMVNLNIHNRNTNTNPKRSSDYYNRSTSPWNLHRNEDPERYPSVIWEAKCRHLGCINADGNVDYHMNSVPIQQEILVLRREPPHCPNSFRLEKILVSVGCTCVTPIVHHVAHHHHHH

[2] = target: T1, Human IL-17A重组蛋白 (IL-17A-His); test: BLI, ForteBio OCTET R2, IL-17A-His immobilised on the sensor at 5 ug/mL, antibody 50-3.13 nM, 25℃
[3] = target: T1, Human IL-17A重组蛋白 (IL-17A-His); test: cell-based or functional assay

B1: Ixekizumab (antibody, human IgG4 S228P, kappa, V domains shown)
VH: QVQLVQSGAEVKKPGSSVKVSCKASGYSFTDYHIHWVRQAPGQGLEWMGVINPMYGTTDYNQRFKGRVTITADESTSTAYMELSSLRSEDTAVYYCARYDYFTGTGVYWGQGTLVTVSS
VL: DIVMTQTPLSLSVTPGQPASISCRSSRSLVHSRGNTYLHWYLQKPGQSPQLLIYKVSNRFIGVPDRFSGSGSGTDFTLKISRVEAEDVGVYYCSQSTHLPFTFGQGTKLEIKR
notes: Made in-house in 293F cells from the synthesised variable regions cloned into hIgG4 and hIgKc vectors; purified on Protein A; also called 阳性对照抗体Ixekizumab; 阳性抗体
EC50 [1]: 10.1 µg/mL | Kd [2]: 0.391 nM | IC50, luciferase activity of 293F-IL-17RA-IL-17Rc-ACT1-NFκB-Luc reporter cells stimulated with 0.1 μg/mL IL-17A [3]: 2.23 nM
